Test results published in article PMC6685639.

Molecular target: GST-PfPP1c (P. falciparum)

Substance | pNPP dephosphorylation activity of recombinant PfPP1c (40 pmol, without GST) pre-incubated 30 min at 37°C with different amounts of PbGEXP15 (4–178); concentration-dependent increase [fold] | pNPP dephosphorylation activity of recombinant PfPP1c (40 pmol, without GST) pre-incubated 30 min at 37°C with different amounts of PbGEXP15 (4–590); concentration-dependent increase [fold]
6-His PbGEXP15 (4–178) (domain or fragment) | 2 | 
6-His PbGEXP15 (4–590) (domain or fragment) |  | 2
